Like-named read-outs stand apart in the source and are kept apart here. Each block holds one compound with its values, some of them ahead of it. Where no end group is shown, it is not given here. [ ]: non-standard residue; d: D form. pY = N[C@@H](Cc1ccc(OP(=O)(O)O)cc1)C(=O)O
Tests used:
[1] = target: T1, RPA70 N-terminal domain (residue 1-120) (Homo sapiens, UniProt P27694); assay: Microscale thermophoresis (MST) binding; conditions: 50 nM Atto488-labelled RPA70N
T1 construct: 6xHis; made in house
From the text: FIGS. 3A-3I. Identification of GRB2 binding interfaces on MRE11, RPA70 and H2AX. (FIG. 3A) Schematic DDR binding-motifs (circles) on GRB2 within its domain architecture. Approximate non-canonical binding motifs are shown. (FIG. 3B) GST-SH domains pulldown of HEK293T cell-extracts followed by immunoblotting with indicated antibodies. (FIG. 3C) GST pulldown of bacterially expressed and purified human MRE11 with indicated GRB2 SH-domains. (FIG. 3D) OB1 fold binding motifs sequence alignment (top). MST isotherms of 50 nM Atto488-labelled RPA70 N-terminal domain (residue 1-120) binding to titrating concentrations (2 nM to 20 μM) of GRB2 or GRB2-derived OB1 peptide. The binding affinity (Kd) is shown. (FIG. 3E) Strep-Tactin precipitation of WT and DF/AA mutant from HEK293T cells that were either untreated (normal) or immediately after IR treated (5 Gy) and lysed, followed by western blot detection with the indicated antibodies. (FIG. 3F) MST-binding isotherms of an Atto488-labelled GRB2-SH2 domain (100 nM) binding to titrating concentrations (30 nM to 500 μM) of synthetic peptides derived from indicated proteins. […]
(§1) Microscale thermophoresis. […] The Kd values were measured using the Monolith NT.115 system (Nano Temper). […] Labeling efficiency was determined to be 1:1 (protein:dye) by measuring the absorbance at 280 and 488 nm. […]

[2] = target: T2, GRB2-SH2 domain (Homo sapiens, UniProt P62993); assay: Microscale thermophoresis (MST) binding of synthetic peptides
T2 construct: 6xHis; made in house
From the text: (§2) FIGS. 3A-3I. Identification of GRB2 binding interfaces on MRE11, RPA70 and H2AX. (FIG. 3A) Schematic DDR binding-motifs (circles) on GRB2 within its domain architecture. Approximate non-canonical binding motifs are shown. (FIG. 3B) GST-SH domains pulldown of HEK293T cell-extracts followed by immunoblotting with indicated antibodies. (FIG. 3C) GST pulldown of bacterially expressed and purified human MRE11 with indicated GRB2 SH-domains. (FIG. 3D) OB1 fold binding motifs sequence alignment (top). MST isotherms of 50 nM Atto488-labelled RPA70 N-terminal domain (residue 1-120) binding to titrating concentrations (2 nM to 20 μM) of GRB2 or GRB2-derived OB1 peptide. The binding affinity (Kd) is shown. (FIG. 3E) Strep-Tactin precipitation of WT and DF/AA mutant from HEK293T cells that were either untreated (normal) or immediately after IR treated (5 Gy) and lysed, followed by western blot detection with the indicated antibodies. (FIG. 3F) MST-binding isotherms of an Atto488-labelled GRB2-SH2 domain (100 nM) binding to titrating concentrations (30 nM to 500 μM) of synthetic peptides derived from indicated proteins. (FIG. 3G) MST-isotherms of 100 nM Atto488-labelled K109R GRB2 mutant binding to titrating concentrations (30 nM to 200 μM) of synthetic peptides derived from the indicated proteins. Each isotherm was derived from the raw data and fitted according to the law of mass action to yield an apparent Kd. (FIG. 3H) Molecular docking overlay model of GRB2-SH2 domain with (PDB: 3wa4) and without (PDB: 1gri) showing S88 and S90 movement ˜4.7 Å when bound to phosphotyrosine peptide (PDB: 3wa4). K109R shown modeled, which could engage with the loop containing S88 and S90 residues. (FIG. 3I) Docking of pH2AX, MRE11 and pEGFR peptide into GRB2 SH2 domain pocket. The relative docking orientation of each peptide is shown.
(§3) Microscale thermophoresis. The MST method has been described in detail elsewhere (Seidel et al., 2013). The Kd values were measured using the Monolith NT.115 system (Nano Temper). Proteins were fluorescently labeled with Atto 488 according to the manufacturer's protocol. Labeling efficiency was determined to be 1:1 (protein:dye) by measuring the absorbance at 280 and 488 nm. A solution of peptides or proteins in 0.01 M HEPES (pH 7.4), 0.15 M NaCl and 0.005% v/v Surfactant P20 was serially diluted, typically from about 100 μM to 30 nM in the presence of 100 nM labeled protein. The samples were loaded into silica capillaries (Polymicro Technologies) after incubation at room temperature for 15 min. Measurements were performed at 22° C. using 20% LED power and 40% IR-laser power. Measurements were also carried out using 20% and 60% IR-laser power for comparison. Data analyses were performed using Nano Temper Analysis software using the Kd curve fitting function. Raw data were exported and fitting curves were generated using Prism 8 (GraphPad Software) for presentation.

[3] = target: T3, K109R GRB2 mutant (Homo sapiens, UniProt P62993, K109R); assay: as above; conditions: 100 nM Atto488-labelled K109R GRB2
T3 construct: 6xHis; made in house
From the text: as §2, §3

[4] = target: T4, human MRE11 (residue 1-411) (Homo sapiens, UniProt P49959); assay: Microscale thermophoresis (MST) binding of GRB2 WT and mutants; conditions: bacterially expressed proteins lacking ubiquitination
T4 construct: Human MRE11 core (residues 1-411) purification was described previously; 6xHis; made in house
T4 sequence (P49959 1-411): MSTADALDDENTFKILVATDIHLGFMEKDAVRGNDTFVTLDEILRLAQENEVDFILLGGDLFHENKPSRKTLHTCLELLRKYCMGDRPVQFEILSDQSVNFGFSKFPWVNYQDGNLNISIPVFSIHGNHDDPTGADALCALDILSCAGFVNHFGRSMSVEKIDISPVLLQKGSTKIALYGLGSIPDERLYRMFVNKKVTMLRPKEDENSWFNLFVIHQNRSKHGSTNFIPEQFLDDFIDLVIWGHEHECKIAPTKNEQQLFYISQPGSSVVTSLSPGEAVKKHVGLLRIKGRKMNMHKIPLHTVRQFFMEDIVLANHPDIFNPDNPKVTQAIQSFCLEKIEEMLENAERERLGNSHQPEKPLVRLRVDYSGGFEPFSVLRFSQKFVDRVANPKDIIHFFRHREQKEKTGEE
From the text: FIGS. 2A-2H. Interactions of nGRB2 with DNA damage response factors. (FIG. 2A) Mass spectrometry identifies nuclear GRB2-associated proteins that are involved in DNA damage repair. Mean of coverage and unique peptides from three independent data sets are shown. (FIG. 2B) Strep-Tactin precipitation of Strep-GRB2 precipitated from HEK293T cells followed by western blotting with indicated antibodies. (FIG. 2C) GRB2 preferentially co-precipitate MRE11 without RAD50 or NBS1. Strep-GRB2 expressed HEK293T cells treated with or without 5 Gy IR were lysed immediately followed by Strep-Tactin precipitation and immunoblotting with indicated antibodies. (FIG. 2D) Immunoprecipitation of NBS1. HEK293T cells were co-transfected with RFP-GRB2 and GFP-NBS1 or GFP alone as control. Total cell lysates were precipitated with GFP-trap beads and immunoblotted with indicated antibodies. (FIG. 2E) Immunoprecipitation of RAD50. HEK293T cells expressing Flag-RAD50 or Flag-Ctrl were co-transfected with RFP-GRB2 for 24 h. Unperturbed cells were immunoprecipitated with Flag-M2 beads and immunoblotted with indicated antibodies. β-Actin was used as a loading control. (FIG. 2F) Immunoprecipitation of MRE11. […]
as §1

T2 sequence (P62993 60-152 limits assumed): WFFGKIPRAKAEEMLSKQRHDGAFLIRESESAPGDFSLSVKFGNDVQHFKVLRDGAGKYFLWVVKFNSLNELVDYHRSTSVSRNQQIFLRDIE
T3 sequence (P62993 whole entry K109R): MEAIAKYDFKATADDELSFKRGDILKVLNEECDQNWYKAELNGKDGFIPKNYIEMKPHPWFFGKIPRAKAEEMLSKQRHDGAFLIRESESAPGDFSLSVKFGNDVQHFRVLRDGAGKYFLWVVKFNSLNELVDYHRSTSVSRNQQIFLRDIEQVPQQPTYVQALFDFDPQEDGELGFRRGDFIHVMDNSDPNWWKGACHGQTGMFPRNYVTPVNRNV
T1 sequence (P27694 1-120): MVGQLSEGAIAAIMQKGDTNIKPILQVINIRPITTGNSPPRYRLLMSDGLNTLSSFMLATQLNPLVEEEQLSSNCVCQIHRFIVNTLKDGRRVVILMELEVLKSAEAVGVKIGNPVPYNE

binding to RPA70N [1]: direct binding
Compound: non-ubiquitinated GRB2: bacterially expressed and purified wild-type growth factor receptor-bound protein 2

Compound: CC[C@H](C)[C@H](NC(=O)[C@H](Cc1ccc(OP(=O)(O)O)cc1)NC(=O)[C@H](CCC(=O)O)NC(=O)[C@@H]1CCCN1C(=O)[C@@H](NC(=O)[C@@H]1CCCN1C(=O)[C@H](CC(C)C)NC(=O)[C@@H](N)Cc1ccccc1)C(C)C)C(=O)N[C@@H](CC(N)=O)C(=O)N[C@@H](CCC(N)=O)C(=O)N[C@@H](CO)C(=O)N[C@H](C(=O)N1CCC[C@H]1C(=O)N[C@@H](CCCCN)C(=O)N[C@@H](CCCNC(=N)N)C(=O)O)C(C)C [pEGFR]
Kd [2]: 7.2 ± 2 µM | binding affinity to K109R GRB2 relative to WT GRB2 [3]: comparable to that of ^WTGRB2

dissociation constant (Kd), interaction with MRE11 [4]: intact MRE11 binding
Compound: K109A mutant: ubiquitination-defective GRB2 K109A mutant, bacterially expressed

Kd ([2]; MST, 100 nM Atto488-labelled GRB2-SH2 domain, read-out: Kd, binding to GRB2-SH2 domain): 2.8 ± 3.3 µM | binding affinity to K109R GRB2 relative to WT GRB2 [3]: comparable to that of ^WTGRB2
Compound: C[C@H](NC(=O)[C@H](CCCCN)NC(=O)[C@H](CCCCN)NC(=O)CNC(=O)CNC(=O)[C@H](CO)NC(=O)[C@@H]1CCCN1)C(=O)N[C@H](C(=O)N[C@@H](CCC(N)=O)C(=O)N[C@@H](C)C(=O)N[C@@H](COP(=O)(O)O)C(=O)N[C@@H](CCC(N)=O)C(=O)N[C@@H](CCC(=O)O)C(=O)N[C@@H](Cc1ccc(OP(=O)(O)O)cc1)C(=O)O)[C@@H](C)O [pH2AX peptide]

binding to RPA70N [1]: interacted with RPA70N
Compound: KYDFKATADDELSFKRG

binding affinity to K109R GRB2 relative to WT GRB2 [3]: at least two orders of magnitude weaker
Compound: CC(C)C[C@H](NC(=O)[C@H](CC(N)=O)NC(=O)CNC(=O)[C@H](CC(=O)O)NC(=O)[C@H](CCC(N)=O)NC(=O)[C@H](Cc1ccc(O)cc1)NC(=O)[C@H](CC(N)=O)NC(=O)[C@@H](NC(=O)[C@H](Cc1c[nH]c2ccccc12)NC(=O)[C@@H]1CCCN1)C(C)C)C(=O)N[C@@H](CC(N)=O)C(=O)O

dissociation constant (Kd), interaction with MRE11 [4]: no binding
Compound: K109R mutant: GRB2 lysine-to-arginine mutant at K109, bacterially expressed

effect of tyrosine phosphorylation on binding affinity for GRB2-SH2 domain ([2]; MST): limited impact on its binding affinity
Compound: WVNpYQDGNLN (WVN[pY]QDGNLN)

— patent US20230366033A1, “METHODS FOR TREATING CANCERS WITH INHIBITORS TARGETING THE ROLE OF GRB2 IN DNA REPAIR” (Board of Regents, The University of Texas System, priority 2020, published 2023)
